This is an account of results in article PMC7005700.

Assay [1] addresses USF-1 (UniProt P22415). In words: co-immunoprecipitation, immunoblot. Particulars: reference: wild type; sites T505. In general terms: In western blotting, separated proteins are transferred to a membrane and probed.
Assay [2] has as its target USF-1 overexpressed in 293FT cells (UniProt P22415).
The target is the same in assay [3]. This is another data set of the same source.

Sequence of USF-1 overexpressed in 293FT cells (P22415 whole entry): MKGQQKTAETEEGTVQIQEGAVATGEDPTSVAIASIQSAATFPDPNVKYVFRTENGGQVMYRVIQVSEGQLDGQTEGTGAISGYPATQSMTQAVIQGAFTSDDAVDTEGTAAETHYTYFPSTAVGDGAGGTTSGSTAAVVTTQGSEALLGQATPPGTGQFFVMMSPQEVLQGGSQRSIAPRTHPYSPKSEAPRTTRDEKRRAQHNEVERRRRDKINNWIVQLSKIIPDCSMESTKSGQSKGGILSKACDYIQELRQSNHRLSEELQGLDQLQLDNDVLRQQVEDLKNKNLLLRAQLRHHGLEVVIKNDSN

For the substance JMJD1C (from UniProt Q15652) T505A, the “binding against the reference” value in assay [1] was “lost”.

Consider JMJD1C T505D mutant, Q15652 1-2540, for which, in assay [2], the ChIP-qPCR enrichment at the FAS promoter (FAS promoter luc construct) upon insulin treatment is 17 fold.

Regarding WT JMJD1C, Q15652 1-2540, the FAS promoter (-444-FAS promoter-luciferase) activity in 293FT cells co-transfected with JMJD1C along with USF-1 in assay [3] worked out at 27 fold. This substance also came in with a ChIP-qPCR enrichment at the FAS promoter (FAS promoter luc construct) upon insulin treatment in assay [2] of 12 fold.
